Measurements reported in article PMC4339303.

Experiments:
Assay in all cases: proximity ligation
[1] = target: double-mutant V5-RTEL1^C1252A/C1255A (mouse) (mouse)
[2] = target: full-length WT V5-RTEL1 (mouse) (mouse)
[3] = target: single-mutant V5-RTEL1^R1237H (mouse) (mouse)

full-length WT V5-RTEL1 (mouse) (mouse), sequence (Q0VGM9 whole entry): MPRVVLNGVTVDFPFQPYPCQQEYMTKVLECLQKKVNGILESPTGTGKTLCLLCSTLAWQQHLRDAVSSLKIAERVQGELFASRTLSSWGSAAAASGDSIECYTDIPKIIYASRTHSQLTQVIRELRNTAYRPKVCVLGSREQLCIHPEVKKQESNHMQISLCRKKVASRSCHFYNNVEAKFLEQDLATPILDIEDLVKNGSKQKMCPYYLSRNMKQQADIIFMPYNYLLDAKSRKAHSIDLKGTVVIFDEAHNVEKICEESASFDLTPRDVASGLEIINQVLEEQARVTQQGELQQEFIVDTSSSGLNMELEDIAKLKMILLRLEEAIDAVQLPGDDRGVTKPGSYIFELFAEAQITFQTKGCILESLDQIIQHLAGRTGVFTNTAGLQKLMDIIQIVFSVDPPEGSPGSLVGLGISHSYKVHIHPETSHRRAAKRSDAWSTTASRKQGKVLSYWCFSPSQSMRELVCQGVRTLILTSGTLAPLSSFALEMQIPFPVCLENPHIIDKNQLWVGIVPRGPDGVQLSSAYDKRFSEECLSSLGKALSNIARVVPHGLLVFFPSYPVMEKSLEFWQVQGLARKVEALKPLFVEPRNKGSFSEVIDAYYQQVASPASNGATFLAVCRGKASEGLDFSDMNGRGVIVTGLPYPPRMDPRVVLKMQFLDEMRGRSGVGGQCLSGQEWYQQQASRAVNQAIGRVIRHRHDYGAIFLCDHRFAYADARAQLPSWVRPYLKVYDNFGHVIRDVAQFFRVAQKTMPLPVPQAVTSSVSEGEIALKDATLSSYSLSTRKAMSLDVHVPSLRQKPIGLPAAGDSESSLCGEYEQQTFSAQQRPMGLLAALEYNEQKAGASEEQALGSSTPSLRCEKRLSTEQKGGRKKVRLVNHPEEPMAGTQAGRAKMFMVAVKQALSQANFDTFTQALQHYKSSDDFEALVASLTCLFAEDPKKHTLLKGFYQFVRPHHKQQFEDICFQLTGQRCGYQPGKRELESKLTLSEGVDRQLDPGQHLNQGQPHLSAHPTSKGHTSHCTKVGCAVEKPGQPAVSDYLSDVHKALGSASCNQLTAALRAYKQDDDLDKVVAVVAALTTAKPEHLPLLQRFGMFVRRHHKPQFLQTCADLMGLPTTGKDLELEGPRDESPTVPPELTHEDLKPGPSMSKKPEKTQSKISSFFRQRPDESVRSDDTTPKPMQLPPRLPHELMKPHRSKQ

endogenous PCNA (proliferating cell nuclear antigen) (from UniProt P17918 1-261) (natural protein)
PLA foci per nucleus (PLA foci per nucleus) [1]: 11.6 | PLA foci per nucleus (foci per nucleus) [2]: 11.5 | PLA foci per nucleus (PLA foci per nucleus) [3]: 13.4
